Results on 1 protein are retold here after FireProtDB (doi:10.1021/bi991757+).

The conditions of the series: Enterobacteria phage 434, pH 6, Urea, CD, KH2PO4 25 mM, KCl 100 mM, reversible: yes, whole UniProt chain shown.

B1: Regulatory protein cro wild type, P03036 (protein)
chain: MQTLSERLKKRRIALKMTQTELATKAGVKQQSIQLIEAGVTKRPRFLFEIAMALNCDPVWLQYGTKRGKAA
Turning to B1, the denaturant m value stood at 0.99 kcal/mol/M (5 °C), 0.91 kcal/mol/M (15 °C), 1.01 kcal/mol/M (20 °C) and 1 kcal/mol/M (25 °C). The “denaturant midpoint (higher = more stable)” value is, setting by setting: (5 °C) 3.32 M; (15 °C) 3.56 M; (20 °C) 3.42 M; (25 °C) 3.07 M. Further, the unfolding free energy is, setting by setting: (5 °C) 3.28 kcal/mol; (15 °C) 3.23 kcal/mol; (20 °C) 3.44 kcal/mol; (25 °C) 3.05 kcal/mol.
